Like-named read-outs stand apart in the source and are kept apart here.
T1: Cyno 4-1BB ECD-AFH (cynomolgus monkey)
T1 construct: entry includes the tags; also called FOB004; Cyno CD137 ECD-avi-flag-his
T1 chain: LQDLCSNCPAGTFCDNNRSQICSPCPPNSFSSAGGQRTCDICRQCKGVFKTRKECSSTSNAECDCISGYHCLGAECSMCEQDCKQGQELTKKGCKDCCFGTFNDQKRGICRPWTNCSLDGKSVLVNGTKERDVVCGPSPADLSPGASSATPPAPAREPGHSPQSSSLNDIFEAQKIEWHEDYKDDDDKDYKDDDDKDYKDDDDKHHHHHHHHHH

T2: Cyno OX40-AFH (cynomolgus monkey)
T2 construct: entry includes the tags; also called OXF005; cyno OX40 ECD
T2 chain: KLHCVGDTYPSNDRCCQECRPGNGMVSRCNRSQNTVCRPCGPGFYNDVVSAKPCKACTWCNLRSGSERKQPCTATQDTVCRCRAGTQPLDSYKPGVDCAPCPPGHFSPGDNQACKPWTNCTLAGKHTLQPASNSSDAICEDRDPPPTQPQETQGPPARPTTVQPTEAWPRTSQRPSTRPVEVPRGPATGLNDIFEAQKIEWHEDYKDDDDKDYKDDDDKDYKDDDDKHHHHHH

T3: Full-length Cyno OX40 (cynomolgus monkey, UniProt P43489 29-277 (human entry))
T3 construct: on CHO-K1SV cells; also called OXF004; cynomolgus OX40
T3 chain: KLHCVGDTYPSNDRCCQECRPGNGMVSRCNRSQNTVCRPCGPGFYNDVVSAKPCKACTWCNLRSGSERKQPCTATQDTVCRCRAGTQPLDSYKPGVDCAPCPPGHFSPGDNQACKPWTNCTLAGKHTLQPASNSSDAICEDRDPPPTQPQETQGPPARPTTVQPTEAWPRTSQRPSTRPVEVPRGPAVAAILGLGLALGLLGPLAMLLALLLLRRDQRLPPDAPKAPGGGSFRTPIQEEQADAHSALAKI

T4: Full-length Cyno 4-1BB (cynomolgus monkey, UniProt Q07011 24-255 (human entry))
T4 construct: on Jurkat or CHO cells; also called FOB006; cynomolgus 4-1BB
T4 chain: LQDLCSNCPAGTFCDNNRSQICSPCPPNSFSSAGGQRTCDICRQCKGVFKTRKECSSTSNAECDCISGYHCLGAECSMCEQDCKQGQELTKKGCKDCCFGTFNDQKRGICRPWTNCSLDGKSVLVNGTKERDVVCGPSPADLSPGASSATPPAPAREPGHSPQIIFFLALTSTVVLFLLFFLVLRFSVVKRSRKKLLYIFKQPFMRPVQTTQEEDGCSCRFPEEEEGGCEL

T5: Full-length Human OX40 (human, UniProt P43489 29-277)
T5 construct: also called OXF001; human OX40/CHO
T5 sequence: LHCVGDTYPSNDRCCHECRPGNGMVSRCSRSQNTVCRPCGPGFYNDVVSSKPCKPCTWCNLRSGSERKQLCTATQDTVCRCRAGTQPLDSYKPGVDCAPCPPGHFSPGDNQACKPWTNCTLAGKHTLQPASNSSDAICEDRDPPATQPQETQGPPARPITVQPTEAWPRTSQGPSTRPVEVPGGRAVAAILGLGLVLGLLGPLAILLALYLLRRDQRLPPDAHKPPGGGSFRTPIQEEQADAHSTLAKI


What was measured:
[1] = target: T1, Cyno 4-1BB ECD-AFH; experiment: SPR (Biacore 8K), construct captured, monovalent ECD
[2] = target: T2, Cyno OX40-AFH; experiment: as above
[3] = target: T3, Full-length Cyno OX40; experiment: flow cytometry on CHOK1SV cells transfected with cynomolgus OX40, goat anti-human Fc secondary antibody, MFI (Mean)
[4] = target: T4, Full-length Cyno 4-1BB; experiment: flow cytometry on Jurkat cells transfected with cynomolgus 4-1BB, goat anti-human Fc secondary antibody, MFI (Mean)
Method: Serial dilutions of ADAPTIR™ constructs were incubated with transfected target cells and subsequently labelled with a fluorescently-conjugated goat-a-human Fc secondary antibody. […] (See Example 25.)

[5] = target: T5, Full-length Human OX40; experiment: flow cytometry, CHO cells expressing human OX40
[6] = target: T4, Full-length Cyno 4-1BB; experiment: flow cytometry on Jurkat cells transfected with cynomolgus 4-1BB, goat anti-human Fc secondary antibody, MFI (Mean)
[7] = target: T5, Full-length Human OX40; experiment: cell-based or functional assay
[8] = target: Full-length Human 4-1BB (human, UniProt Q07011 24-255); experiment: cell-based or functional assay
Chain of Full-length Human 4-1BB (Q07011 24-255): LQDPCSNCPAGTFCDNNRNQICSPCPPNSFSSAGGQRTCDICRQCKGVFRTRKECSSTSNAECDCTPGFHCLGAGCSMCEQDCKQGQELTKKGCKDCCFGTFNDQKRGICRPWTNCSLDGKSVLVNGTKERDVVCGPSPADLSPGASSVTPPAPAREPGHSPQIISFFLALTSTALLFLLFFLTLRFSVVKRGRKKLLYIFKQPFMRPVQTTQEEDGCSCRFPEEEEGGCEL
Wherever 4-1BB Reporter Assay Max induction is given: unit not given here.
Wherever OX40 Reporter Assay Max induction is given: unit not given here.

Binder	Kd [1]	koff [1]	kon [1]	Kd [2]	koff [2]	kon [2]	EC50 (read off the curve) [3]	EC50 (read off the curve) [4]	EC50 [5]	max MFI [5]	EC50 (read off the curve) [6]	OX40 Reporter Assay EC50 [7]	OX40 Reporter Assay Max induction [7]	4-1BB Reporter Assay EC50 [8]	4-1BB Reporter Assay Max induction [8]
FXX01101 (bispecific antibody, ADAPTIR anti-4-1BB (HL) x anti-OX40 with T86R; PAA (del) Fc; also called FX01101) EVQLVQSGAEVKKPGASVKVSCKASGYTFTSYWMNWVRQAPGQGLEWMGNIYPSGGSTNYAQKFQGRVTMTVDTSTSTVYMELSSLRSEDTAVYYCASFSDGYYAYAMDYWGQGTLVTVSSGGGGSGGGGSGGGGSGGGGSEIVMTQSPATLSLSPGERATLSCRASQSVSSYLNWYQQKPGQAPRLLIYYASRRHTGIPARFSGSGSGTDFTLTISSLQPEDFAVYYCQQGYNLPYTFGQGTKVEIKEPKSSDKTHTCPPCPAPPAAAPSVFLFPPKPKDTLMISRTPEVTCVVVDVSHEDPEVKFNWYVDGVEVHNAKTKPREEQYNSTYRVVSVLTVLHQDWLNGKEYKCAVSNKALPAPIEKTISKAKGQPREPQVYTLPPSRDELTKNQVSLTCLVKGFYPSDIAVEWESNGQPENNYKTTPPVLDSDGSFFLYSKLTVDKSRWQQGNVFSCSVMHEALHNHYTQKSLSLSPGGGGSPSSYVLTQPPSVSVAPGQTARITCGGNNIGSKSVNWFQQKPGQAPVLVVYDDSGRPSGIPERFSGSTSGNTATLTISRVEAGDEADYYCQVWDSSSDHVVFGGGTKLTVLGGGGSGGGGSGGGGSGGGGSQVQLVESGGGVVQPGRSLRLSCAASGFTLSYYGMHWVRQAPGKGLEWVAAISHDGSDKYYADSVKGRFTISRDNSKNRLYLQMNSLRAEDTAVYYCSNDQFDPWGQGTLVTVSSR	76 nM	0.0077 s⁻¹	100000 M⁻¹ s⁻¹	< 1 nM	0.00027 s⁻¹	1.1e+06 M⁻¹ s⁻¹	~0.8 nM	~0.3 nM	0.31 nM	10500 MFI	~0.3 nM	0.017 nM	5.89e+06	0.018 nM	1.44e+06
FXX01102 (bispecific antibody, ADAPTIR anti-4-1BB (HL) x anti-OX40 with Q17K and T86R; PAA (del) Fc; also called FX01102) EVQLVQSGAEVKKPGASVKVSCKASGYTFTSYWMNWVRQAPGQGLEWMGNIYPSGGSTNYAQKFQGRVTMTVDTSTSTVYMELSSLRSEDTAVYYCASFSDGYYAYAMDYWGQGTLVTVSSGGGGSGGGGSGGGGSGGGGSEIVMTQSPATLSLSPGERATLSCRASQSVSSYLNWYQQKPGQAPRLLIYYASRRHTGIPARFSGSGSGTDFTLTISSLQPEDFAVYYCQQGYNLPYTFGQGTKVEIKEPKSSDKTHTCPPCPAPPAAAPSVFLFPPKPKDTLMISRTPEVTCVVVDVSHEDPEVKFNWYVDGVEVHNAKTKPREEQYNSTYRVVSVLTVLHQDWLNGKEYKCAVSNKALPAPIEKTISKAKGQPREPQVYTLPPSRDELTKNQVSLTCLVKGFYPSDIAVEWESNGQPENNYKTTPPVLDSDGSFFLYSKLTVDKSRWQQGNVFSCSVMHEALHNHYTQKSLSLSPGGGGSPSSYVLTQPPSVSVAPGKTARITCGGNNIGSKSVNWFQQKPGQAPVLVVYDDSGRPSGIPERFSGSTSGNTATLTISRVEAGDEADYYCQVWDSSSDHVVFGGGTKLTVLGGGGSGGGGSGGGGSGGGGSQVQLVESGGGVVQPGRSLRLSCAASGFTLSYYGMHWVRQAPGKGLEWVAAISHDGSDKYYADSVKGRFTISRDNSKNRLYLQMNSLRAEDTAVYYCSNDQFDPWGQGTLVTVSSR	75 nM	0.0074 s⁻¹	98000 M⁻¹ s⁻¹	< 1 nM	0.00023 s⁻¹	1.1e+06 M⁻¹ s⁻¹	~0.8 nM	~0.3 nM	0.34 nM	10500 MFI	~0.3 nM	0.016 nM	5.78e+06	0.021 nM	1.4e+06
